In publication PMC5039092 (FEBS letters, 2016):

Experiments:
[1] = target: the molecule itself; experiment: SDS-PAGE and Western blot
[2] = target: the molecule itself; experiment: SEC

B1: C394S mutant of full length human adenosine A2a receptor with a C-terminal 10 histidine tag (receptor, UniProt P29274 1-412, looked up)
chain: MPIMGSSVYITVELAIAVLAILGNVLVCWAVWLNSNLQNVTNYFVVSLAAADIAVGVLAIPFAITISTGFCAACHGCLFIACFVLVLTQSSIFSLLAIAIDRYIAIRIPLRYNGLVTGTRAKGIIAICWVLSFAIGLTPMLGWNNCGQPKEGKNHSQGCGEGQVACLFEDVVPMNYMVYFNFFACVLVPLLLMLGVYLRIFLAARRQLKQMESQPLPGERARSTLQKEVHAAKSLAIIVGLFALCWLPLHIINCFTFFCPDCSHAPLWLMYLAIVLSHTNSVVNPFIYAYRIREFRQTFRKIIRSHVLRQQEPFKAAGTSARVLAAHGSDGEQVSLRLNGHPPGVWANGSAPHPERRPNGYALGLVSGGSAQESQGNTGLPDVELLSHELKGVSPEPPGLDDPLAQDGAGVS
- binding result [1]: binds

B2: spin labeled wild type full length human adenosine A2a receptor with a C-terminal 10 histidine tag (receptor, UniProt P29274 1-412, looked up)
chain: MPIMGSSVYITVELAIAVLAILGNVLVCWAVWLNSNLQNVTNYFVVSLAAADIAVGVLAIPFAITISTGFCAACHGCLFIACFVLVLTQSSIFSLLAIAIDRYIAIRIPLRYNGLVTGTRAKGIIAICWVLSFAIGLTPMLGWNNCGQPKEGKNHSQGCGEGQVACLFEDVVPMNYMVYFNFFACVLVPLLLMLGVYLRIFLAARRQLKQMESQPLPGERARSTLQKEVHAAKSLAIIVGLFALCWLPLHIINCFTFFCPDCSHAPLWLMYLAIVLSHTNSVVNPFIYAYRIREFRQTFRKIIRSHVLRQQEPFKAAGTSARVLAAHGSDGEQVSLRLNGHPPGVWANGSAPHPERRPNGYALGLVSGGSAQESQGNTGLPDVELLSHELKGVCPEPPGLDDPLAQDGAGVS
modifications: nitroxide radical MTSL spin label attached to free cysteines (thiol of C394)
- binding result [2]: binds
